# According to the DeepSol protein solubility set:
# Experiment: soluble on expression in E. coli; label from the status in PepcDB or PDB records
row,Sequence,soluble on expression in E. coli
1,MKFPGKRKSKHYFPVNARDPLLQQIQPENESSVSWVVGIDQTLVDIEAKVDEAFIVRYGLSAGHSLVIEDDVAEALYQELVRNNLITHQFAGGTIGNTMHNYSVLADDRSVLLGVMCSNIEIGGYAYRYLCNTSSRTDLNYLQGVDGAIGRCFTLIGDSGERTFAISPGHMNKLRPESIPEAVIAGASALVLTSYLVRCKPGEPMPDATMKAIEYAKKHDVPVVLTLGTKYVIADNPAWWQEFLQEHVSILAMNEEEGEALTGFADPLSAANKALDWVDLVLCTAGPAGLYMAGFTEEEAKRKTQHPLLPGAIPEFNQFEFSRAMRHQDCVNPLRIYSHIAPYMGGPEKIMNTNGAGDGALAALLHDITANNYHRNNVPNSSKHKCKWLTYSSLAQVCKYANRVSYQVLNQHSPRLTRGLPEREDSLEEAYWDR,not soluble
2,MSPNPVEKAAILRIIDSIDARDDDYCAHEFNVYRWLVAYGNEEEEAAKALKRHLNIRKTIDLNSYSSKTELEEDELNKYVPIDVIGQNHQDDNKVLMFERTGKIDISGLVDNVLMHKFMQIKLKMMEGVHQKVVAAERKTGRQSGGLFIMDLDGISFSPKLISVLTGPYRIMWGTLFDHYPQLLQKIIIVNAPSFVNVLHQACSPFLPEDYKEKIVITSEPAIGAIQKHADKCFLPSDLGGDLEKTTSLPMAPFPKMNKKYEKEKEKVSLLAISVPAGKYTVQKFSWKKGDEVEFFLHNESSFHYFMFHSEEDTKDMDLWREMTVGCERPALSQIDSWKYTVPIDGFYFIRYGNHNSWYFSTTVNVNHFISNENGERIELVPIETFNI,not soluble
3,MSLETSRNLSNFFDVSADLLSISNMQGRFVKVNRAWETALGYPIEALEGVPFLPLLHPEDQQSTRVQINRIEVDDEVNGFVNRYRRADGSYCQLEWRARRCDDLVFGVARDVTERLRIQAEMAEARDAAEAANRAKNDFLANMSHEIRTPLNGVIALAAALDETPLTSKQAEMVAMIRRSGETLERLVSDILDVSKIEAGQMTLQPQAFDLGALVDGLLDVTRLRAKEKGVAVRLERSPTAAGGFLGDSVRIGQVLSNLFSNAVKFTDQGEVIVRVDVEEAGNGQAARLFVEVEDTGVGFDAEKAEMIFQRFNQADSTITRRFGGSGLGLSISKTLVEMMGGEITAQSSPGAGSLFRVTLPLSRTQMGPDAEIDAPRSAAPGEGLKVLLAEDHPINQRVVQLILEPCGAAVTVVENGAQAVEAMASGAFDVVLMDMQMPVMDGLAATRAIRAREGEGQRTPIIMLSANAMDVHRREALQAGADLHVPKPITIAALLDSIGQVMAREGHHHHHH,soluble
4,FYRNHYKITYKRRLSDLFREFYLTSSRTKWQLCITLGVALVMLVSRELGLPRPMWAGFAAMSVMQPFAEDLKQRVKHRLPGTIAGGLLFLLLCRVLPE,not soluble
5,MKRTTLVMLLLTLCGFSSASFALSESEAEDLADLTAVFVYLKNDCGYQELPNNEIKRAIVYFAQQNRWDLHNYDSFNMKALGEDSYRDLRGIALPTPVKCKSLARDSLSLLAYAN,not soluble
6,MLNVEPSFAEELRSSGVSLSATYLGSVPVVESINVMVSEMRVQVVSLVFLMA,not soluble
7,GLLAIFIVFAISWGALVEITPLIFQKQTTESVENLRVYTPLEMEGRDIYIREGCNVCHSQMVRPFRSETERYGHYSVAGESVWEHPFLWGSKRTGPDLARVGGRYSDEWHRVHLLDPRELVPESNMPGFPWLAENVLDGKLTQKKLEVFRDQFGVPYEDETIANAAKEVEGKTEMDAIIAYLQSLGH,not soluble
8,MAHHHHHHMLHEVNVGTSDIVRGGHGGDEAATPQQPPALSVVEEHIQRIRLELCGQRHPPSGYASAIAIPSTAAGLDRVAVLVDLLDQVRYWAIEEAFTFKDEPSRLAETEAPEAVVACLCSQRPQLVAQALRVVQPMLRHRQTAYETRRVMVDVWAYREQVNSMVPLPEGLDPLLAMLAEFLEQHKGVLPVLVEALSTATAALVQDGTACVGSDNGNDDNLDGGVSLRRRVAPLVVALHETTLVYQMESAMRRHPDAVPLQVEGVSFCAALVDLPWPFEAEVDSEEGTPTSLADILAHSDGVLDVLHGALRRHRQNLCIARGVLHVWRVCAQHPANRVPLLQHGAYAGALQQLRGVLPYAVGVWREIAETVGYFIPLLDALQRRSLALTLRELLLRRPQLEMLELILALLLSLLMVV,not soluble
9,MADKSAYMGAGGYGSGYMGSNASSSGYAREDYAQGGNGGGQQQQNQGSGGNTNPGGQVFKARTDQSCYLGP,not soluble
10,LKRLFWPVLLVVLGFGTYEGAQRLLPYADRPIARINVQGDLSYISQQAVQQRIAPYVASSFFKIDLAAMRTELEQMPWIAHAEVRRVWPDQVVIRLEEQLPVARWGDEALLNNQGQAFTPRELSNYEHLPQLFGPQRAQQQVMQQYQVLSQMLRPMGFSIVRLELRERGSWFLTTGAGSAGPGIELLLGRDHLVEKMRRFIAIYDKTLKEQITNIARVDLRYSNGLAVGWREQAAATTDKPAVAKN,not soluble
11,MLFFETDATLALWGEAVLAATWAEFPQLARNQLALTWIVYDDPVPVNTGGAIAPQSFWSLPIRGFHYRGDEAIYPASVVKLFYLVAALEWLQQGMIQPSAELDRALRDMIVDSSNDATGYIVDLLSGTTSGPELGDGPFKTWQFQRNIVNRYYQSLMWPELQPINVNQKTWGDGPYGRERAFYGPEFENRNKLTTNATARLLHAIAGGVAVSPSASQRMLNLLNRPFDPRSLAEDPENQVTGFLGQDLPQGSQLWSKAGWMSRVRHDAAYLEIPGLPPHLLVAFTEGKEHANNEAILPFIAQQVRQQLQPALEHHHHHH,soluble
12,MGSDKIHHHHHHMGVTCVSQMPVAEGKSVQQTVELLTRKLEMLGAEKQGTFCVDCETYHTAASTLGSQGQTGKLMYVMHNSEYPLSCFALFENGPCLIADTNFDVLMVKLKGFFQSAKASKIETRGTRYQYCDFLVKVGTVTMGPSARGISVEVEYGPCVVASDCWSLLLEFLQSFLGSHTPGAPAVFGNRHDAVYGPADTMVQYMELFNKIRKQQQVPVAGIR,not soluble
13,MNQEDNTGGGGIFGLFKWTKDALFGTDISPSMKYKDQEERRDRSRYAQDDTNFSMKFGNDSNRRSTNLSRSNSWSGLDSTLHRKYELLPEYNENGFNSIVNGDHHSKERIRSLRSPAPIVPREPLRNEPTDTFGHRLHTKRRTINELSNSQIPFIPPQEDDPLLSKLFNKDGVNEVRRSPYKLSVKDIPGKFPSPLTKRDEIDNYYVRDEDACHKNREYKKAYFDLFAQMDLNSRDLEDLCEDVREQREQFHRNEQTYKQAYEEMRAELVNELKKSKTLFENYYSLGQKYKSLKKVLDQTISHEAELATSRERLYQEEDLKNFEIQTLKQRLSDLELKYTNLQIEKDMQRDNYESEIHDLLLQLSLRNNERKDTSAGSNIFSTGQ,soluble
14,MRDVQKQYNKQEGFVQGYSIIDSYSEDEIPKDGKRSTIQLVHEMGLEKARRIYGENYQCLVATQCDGKSGLYHNHLISNAVGNDGKSQRGDMTKWTKLAEISDQVMIDYGYTPLDKNNWRLNKTRKAEARSKGEYVSPNERKARKNGMTLAKDEVREQIQKVIDDETVKSFEDFKQMLNEEYQIGVEDAGTKDGENIKYSFSYTNKKGETSEKTIKAKTLSKEDYTLSGVKSKIEDKLLETGNFEINENDLTQQQQQMLSNLIVPEDDEDELELEFDDESLAFLDQINEEVKEYGREKHSSKATRNNQRVEKQHRDHQRHVENNERSTTRTKSSSKRAKDKDAGFELG,not soluble
15,MAHHHHHHMPTSSGVDQAKLREVIRVLKSVGHVGMAESLEVEWGMKPNTAAHAKNAKKGRKSLPHKSRESSKARGNSFPSLSSIAVAPSPLQVTSQSRFVVTCIGDEEDLWSPDEDPADAKRCIAPLFDYGAGLLRDHYAEYAAHPVSFVSVHPYEKQQPPSNLPWRHFELKVFYEAGKTGSEEKKEFELVKGDLIGGRYHVDAPIDAATFSRTVRCYDEQTGQPVCLKIIRNSKTFLDQGLDELRALTCVNDAGDADACCVVRLLDYFYFREHLVLVTELLFDNLYEYARKLDIVERCAYFTLARLQRIVRQVLTALKLIHSVNLIHCDIKPENIAFKSVSDCDVKVLDLGSSCYMTDTLSSYVQSRSYRAPEVILGCKYGPAVDIWSLGATAAELATGTVLFNVESVPTMLASIASVCGPIPAEMLQEGRNTSLYVTQHGAFYDYEDEQLVFHFPSEPPDAAVLFGFDDHDYVDFVRLCLTLDAALRPSAAQLLDHPFLTKTYTD,not soluble
16,MLPNNQWQIPINNGLTHQENMAAHAAVMKLRVHDLQSIISQLSLRKPRPQKSEHQKVVVESLRDPHHARQIYQMVISLIFSSLQASNFPNGNYEMQKRPATTSQVRSHPYVLPSRSGASNHLVNHHYQQQQQQQPQPHNLLHQQMMASHHSHLQQQHHPSTPKKMYADNFEPLPLPFYDVISVLLKPVELHSSDSPTLKQTKQLQFPFLLTAEHISKISYRADVTPLPRYELQLRFFNLTEPVQGPQKDDFPLNCYARVDDSVVQLPNVIPTNKTNAEPKRPSRPVNITSNMNRYKKEHTVAVEWLADKRVWAAGVYFVHRVNSDILFKRLNQNVSRHRSLEVTKQEVIKKLSGGEDDIAMDRLNISLLDPLCKTRMTTPSRCQDCTHLQCFDLLSYLMMNEKKPTWQCPVCSSNCPYDRLIVDDYFLDMLAKVDKNTTEVELKEDGSYDVIKEEAFCISDDDDDDVVPATVNGTASCSSTNGNGLANEAAKKKPADDDIITLSDDDDEELNRGIMNSLNDSFSPGRHTASAELAAQKTPPQQKKKTKDDDIEIITLDDTPPRPVAASANLPMRQMSQQNQMPVGSSPSGMASTQMGMNEGASKTIRDALNKIGEPMINQAPHFQMQNGLIGRNNQMVHMQQHHLQQQQQQQQSPQIMSPSFYAQQQMSNGGAFAYYPPQYPQQQYRQN,not soluble
17,MPNYRGRHQTRQNWSSKPREEHSPSKGAYRDKIWSGPVSEVARQQTVYDWVTTGAYSLGSPDSWPSYPDEIILMNESRNAQTSRMSRRSATPGPRLSQDRRTRTTAPAVAPIPFQRAQPRVEVERQRIDEPVAQDLIIDDGNGTNNSNDSSICGFVEESEELVYPQWVYYLYPLIPTAPNCNNEKSYKEGGNWYNSP,not soluble
18,MGSDKIHHHHHHALLGTTGLLHAPTADMQRDKTFLFGGNYLNTHPLSTHFRSSEVGYTFNYYINITIFPWLEVSYICTLVHADHGSTYFPEQSWGKFTNQDRAFSARLRLWKEGWWKEWTPQIVLGLDDPTSHADHGGGELVSGNTSGSNNYATRYYLAVTKHLDVQNIGEWGIHAAFVYGNAKGIEHYKRPSFGTNFRFQLLGDQPLIKVVNNLNLMAEYDARTVNIGAHYQLWKDHINLIAELNNGKYFSGGIYFKIHLK,not soluble
19,MGSDKIHHHHHHMSLTRLNIEAFRNIQSAQLIPAPGINLIYGQNGSGKTSILEAIYFLGMGRSFRSHLSQRVINNDDDKLTLFATLNLARGDSKIGLRRFRSGETEVRIDGEKVKRLSTLAETLPIQVITPESFSLLFEGPKSRRQFIDWGAFHADPQFYGAWTNVRRVLKQRNQLLRNGSAYSNIQFWDQEFVRYAEQVTEIRNHYVDSLNELLKGIIGEFLPSVDVKVSFTRGWDSKTDFAELLENQYSRDLATGHTVSGPHKADLRLRVGTLPAQDALSRGQLKLLVCALRIAQGKLLKQQIDKHSIYLVDDLPSELDAQHRQLLLKQLTDTGAQVFVTAIDPAAIVDSLHTPPSRMFHVEQGRVTVIE,not soluble
20,MSPAPVQVMGVLNVTDDSFSDGGCYLDLDDAVKHGLAMAAAGAGIVDVGGESSRPGATRVDPAVETSRVIPVVKELAAQGITVSIDTMRADVARAALQNGAQMVNDVSGGRADPAMGPLLAEADVPWVLMHWRAVSADTPHVPVRYGNVVAEVRADLLASVADAVAAGVDPARLVLDPGLGFAKTAQHNWAILHALPELVATGIPVLVGASRKRFLGALLAGPDGVMRPTDGRDTATAVISALAALHGAWGVRVHDVRASVDAIKVVEAWMGAERIERDG,soluble
